Experiments:
[1] = molecular target: T1, Human LILRB2 on stably transduced HEK293T cells (human, UniProt Q8N423 22-597); test: flow cytometry, HEK293T cells stably expressing human LILRB2
T1 construct: Lentiviral transduction (G&P Biosciences LTV2992); also called HEK293T-LILRB2; LILRB2-expressing HEK293T cells
Protocol: To confirm binding of LILRB2 antibodies, flow cytometry binding assays were performed using HEK293T cells stably expressing human LILRB2 (Example 3). […] The B2A-IgG1 and B2A-IgG4 chimeras bound the LILRB2-expressing HEK293T cells, with equivalent EC₅₀ values of 0.21 nM and 0.30 nM respectively.

[2] = molecular target: T2, Human LILRB2 on transiently transfected HEK293-6E cells (human, UniProt Q8N423 22-597); test: flow cytometry, transiently transfected HEK293-6E cells
T2 construct: whole, on cells; also called hLILRB2
T2 sequence (Q8N423 22-597): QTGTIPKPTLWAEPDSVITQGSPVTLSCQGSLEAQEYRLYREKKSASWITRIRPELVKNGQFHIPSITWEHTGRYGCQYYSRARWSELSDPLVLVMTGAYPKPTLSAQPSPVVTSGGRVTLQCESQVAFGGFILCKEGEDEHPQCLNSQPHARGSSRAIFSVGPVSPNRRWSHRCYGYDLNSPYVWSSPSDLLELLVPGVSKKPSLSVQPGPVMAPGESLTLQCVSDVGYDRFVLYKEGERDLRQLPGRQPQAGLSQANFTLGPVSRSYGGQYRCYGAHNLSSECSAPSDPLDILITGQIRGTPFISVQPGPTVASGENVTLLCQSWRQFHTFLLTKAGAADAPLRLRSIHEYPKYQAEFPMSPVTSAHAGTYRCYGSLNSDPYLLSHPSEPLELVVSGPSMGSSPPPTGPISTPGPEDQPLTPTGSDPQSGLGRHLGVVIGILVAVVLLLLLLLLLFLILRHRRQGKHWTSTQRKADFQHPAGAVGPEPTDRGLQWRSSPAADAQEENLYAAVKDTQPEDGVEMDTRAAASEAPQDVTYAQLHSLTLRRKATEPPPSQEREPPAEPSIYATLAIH
Protocol: (§1) To determine that the anti-LILRB2 antibodies specifically bind to LILRB2 and not other LILRB and LILRA family members, a cross-reactivity assay was performed. Cross-reactivity of the LILRB2 antibodies to other LILRB proteins was assessed by antibody binding to transiently transfected HEK293-6E cells, measured by flow cytometry. Binding was evaluated to HEK293-6E cells transiently transfected with human LILRB-1, -2, -3, -4, and 5 plasmids (Origene, Nos. RC219949, RC217935, RC211228, RC220932, RC206516) or to cells transiently transfected with human LILRA-1, -2, -4, -5, and -6 plasmids (Origene, Nos. RC210808, RC205626, RC220452, RC212310 RC212965). […] Murine primary antibodies to LILRA and LILRB targets and corresponding isotype controls were used to confirm specific binding of all targets tested (R&D Systems) while an AF647 F(ab′)₂ fragment goat anti-mouse antibody (Jackson ImmunoResearch, No. 115-606-062) was used for the detection of bound positive control antibodies. No binding of B2A-IgG4 or B2A-IgG1 to LILRB-1, -3, -4, or -5 was observed, and no binding of either antibody to LILRA-1, -2, -4, -5, or -6 was observed, confirming specificity of these antibodies.
Select humanized variant antibodies were tested for their ability to bind other LILRB or LILRA family members, using the method and commercially available positive control antibodies of Example 5.

[3] = molecular target: T3, Human LILRB3 on transiently transfected HEK293-6E cells (human, UniProt O75022 24-631); test: as above
T3 construct: whole, on cells; also called hLILRB3

[4] = molecular target: T4, Human LILRA4 on transiently transfected HEK293-6E cells (human, UniProt P59901 24-499); test: as above
T4 construct: whole, on cells; also called hLILRA4
T4 sequence (P59901 24-499): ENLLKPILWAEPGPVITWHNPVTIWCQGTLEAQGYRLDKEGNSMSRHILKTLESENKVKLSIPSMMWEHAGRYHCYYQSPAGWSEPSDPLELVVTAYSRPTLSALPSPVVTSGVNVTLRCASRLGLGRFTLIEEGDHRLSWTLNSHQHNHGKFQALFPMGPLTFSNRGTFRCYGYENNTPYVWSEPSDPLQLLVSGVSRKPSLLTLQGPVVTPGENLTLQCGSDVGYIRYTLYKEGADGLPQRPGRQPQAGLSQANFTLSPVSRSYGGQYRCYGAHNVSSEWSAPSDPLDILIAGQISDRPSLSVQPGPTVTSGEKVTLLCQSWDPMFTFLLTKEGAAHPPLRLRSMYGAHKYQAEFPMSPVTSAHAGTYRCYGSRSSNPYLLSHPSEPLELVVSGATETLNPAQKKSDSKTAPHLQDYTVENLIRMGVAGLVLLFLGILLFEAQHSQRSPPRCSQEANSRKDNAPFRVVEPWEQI

[5] = molecular target: T5, Human LILRB1 on transiently transfected HEK293-6E cells (human, UniProt Q8NHL6 24-650); test: as above
T5 construct: whole, on cells; also called hLILRB1
T5 sequence (Q8NHL6 24-650): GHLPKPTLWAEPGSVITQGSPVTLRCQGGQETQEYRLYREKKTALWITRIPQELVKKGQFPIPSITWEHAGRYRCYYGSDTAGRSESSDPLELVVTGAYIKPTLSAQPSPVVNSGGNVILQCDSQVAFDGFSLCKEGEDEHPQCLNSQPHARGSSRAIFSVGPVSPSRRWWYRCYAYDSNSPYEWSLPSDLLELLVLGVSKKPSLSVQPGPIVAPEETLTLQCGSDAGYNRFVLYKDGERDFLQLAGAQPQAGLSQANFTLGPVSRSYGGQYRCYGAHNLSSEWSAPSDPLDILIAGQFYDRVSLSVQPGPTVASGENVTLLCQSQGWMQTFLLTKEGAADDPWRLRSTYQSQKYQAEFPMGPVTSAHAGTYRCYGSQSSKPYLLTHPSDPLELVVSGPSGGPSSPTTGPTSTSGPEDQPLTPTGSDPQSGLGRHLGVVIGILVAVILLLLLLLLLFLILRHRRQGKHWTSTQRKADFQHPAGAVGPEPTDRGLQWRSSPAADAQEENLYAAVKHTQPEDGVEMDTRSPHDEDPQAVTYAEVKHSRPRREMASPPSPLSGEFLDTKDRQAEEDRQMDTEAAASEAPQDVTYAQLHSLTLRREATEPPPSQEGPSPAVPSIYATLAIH

[6] = molecular target: T6, Human LILRA6 on transiently transfected HEK293-6E cells (human, UniProt Q6PI73 24-481); test: as above
T6 construct: whole, on cells; also called hLILRA6
T6 sequence (Q6PI73 24-481): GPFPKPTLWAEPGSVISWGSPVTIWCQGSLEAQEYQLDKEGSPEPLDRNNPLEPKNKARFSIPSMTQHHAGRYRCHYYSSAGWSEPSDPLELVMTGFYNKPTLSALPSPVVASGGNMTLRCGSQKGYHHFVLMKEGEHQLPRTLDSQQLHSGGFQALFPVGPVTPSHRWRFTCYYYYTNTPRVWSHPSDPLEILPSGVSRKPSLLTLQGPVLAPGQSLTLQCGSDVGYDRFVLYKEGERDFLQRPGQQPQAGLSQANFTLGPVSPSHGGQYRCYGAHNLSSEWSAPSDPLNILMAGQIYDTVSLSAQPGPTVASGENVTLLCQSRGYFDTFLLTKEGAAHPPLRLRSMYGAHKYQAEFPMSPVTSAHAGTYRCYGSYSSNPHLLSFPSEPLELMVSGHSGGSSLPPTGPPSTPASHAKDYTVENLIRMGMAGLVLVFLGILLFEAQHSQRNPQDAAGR

[7] = molecular target: T7, Human LILRB5 on transiently transfected HEK293-6E cells (human, UniProt O75023 24-590); test: as above
T7 construct: whole, on cells; also called hLILRB5
T7 sequence (O75023 24-590): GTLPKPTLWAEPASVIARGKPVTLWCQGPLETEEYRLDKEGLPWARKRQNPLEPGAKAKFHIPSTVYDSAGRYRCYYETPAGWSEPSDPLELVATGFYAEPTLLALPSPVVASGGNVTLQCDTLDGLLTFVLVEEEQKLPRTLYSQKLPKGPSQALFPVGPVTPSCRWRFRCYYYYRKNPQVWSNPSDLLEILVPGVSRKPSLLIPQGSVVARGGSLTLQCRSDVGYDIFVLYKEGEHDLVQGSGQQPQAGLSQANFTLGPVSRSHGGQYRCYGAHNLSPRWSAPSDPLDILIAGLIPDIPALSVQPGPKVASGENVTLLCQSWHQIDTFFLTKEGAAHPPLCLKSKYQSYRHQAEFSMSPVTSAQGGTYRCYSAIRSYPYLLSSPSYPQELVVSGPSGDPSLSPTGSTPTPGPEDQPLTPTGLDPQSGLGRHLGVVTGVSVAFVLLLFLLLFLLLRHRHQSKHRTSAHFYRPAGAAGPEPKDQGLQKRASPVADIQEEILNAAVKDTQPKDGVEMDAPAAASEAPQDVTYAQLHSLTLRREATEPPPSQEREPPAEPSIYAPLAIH

[8] = molecular target: T8, Human LILRA2 on transiently transfected HEK293-6E cells (human, UniProt Q8N149 24-483); test: as above
T8 construct: whole, on cells; also called hLILRA2
T8 sequence (Q8N149 24-483): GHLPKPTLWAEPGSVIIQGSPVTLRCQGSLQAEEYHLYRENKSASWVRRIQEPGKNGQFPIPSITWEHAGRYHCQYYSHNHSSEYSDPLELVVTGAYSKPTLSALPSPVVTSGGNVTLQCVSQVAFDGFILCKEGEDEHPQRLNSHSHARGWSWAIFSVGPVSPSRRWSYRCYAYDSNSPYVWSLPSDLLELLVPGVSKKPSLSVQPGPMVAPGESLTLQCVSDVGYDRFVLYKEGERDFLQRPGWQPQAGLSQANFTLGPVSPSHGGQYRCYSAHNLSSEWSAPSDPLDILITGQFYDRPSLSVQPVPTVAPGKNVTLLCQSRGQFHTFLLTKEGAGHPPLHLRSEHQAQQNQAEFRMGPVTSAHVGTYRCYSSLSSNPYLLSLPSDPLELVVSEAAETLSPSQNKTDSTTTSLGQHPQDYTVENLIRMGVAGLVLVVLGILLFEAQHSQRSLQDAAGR

[9] = molecular target: T9, Human LILRB4 on transiently transfected HEK293-6E cells (human, UniProt Q8NHJ6 22-448); test: as above
T9 construct: whole, on cells; also called hLILRB4

[10] = molecular target: T10, Human LILRA5 on transiently transfected HEK293-6E cells (human, UniProt A6NI73 42-299); test: as above
T10 construct: whole, on cells; also called hLILRA5
T10 sequence (A6NI73 42-299): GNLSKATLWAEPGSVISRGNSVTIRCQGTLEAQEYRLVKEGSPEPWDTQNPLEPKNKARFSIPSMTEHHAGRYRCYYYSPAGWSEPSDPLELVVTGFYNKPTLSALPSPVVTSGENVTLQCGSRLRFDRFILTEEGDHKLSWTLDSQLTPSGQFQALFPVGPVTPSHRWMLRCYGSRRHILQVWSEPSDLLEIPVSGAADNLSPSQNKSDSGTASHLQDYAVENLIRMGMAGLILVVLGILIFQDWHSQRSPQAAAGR

[11] = molecular target: T11, Human LILRA1 on transiently transfected HEK293-6E cells (human, UniProt O75019 17-489); test: as above
T11 construct: whole, on cells; also called hLILRA1
T11 sequence (O75019 17-489): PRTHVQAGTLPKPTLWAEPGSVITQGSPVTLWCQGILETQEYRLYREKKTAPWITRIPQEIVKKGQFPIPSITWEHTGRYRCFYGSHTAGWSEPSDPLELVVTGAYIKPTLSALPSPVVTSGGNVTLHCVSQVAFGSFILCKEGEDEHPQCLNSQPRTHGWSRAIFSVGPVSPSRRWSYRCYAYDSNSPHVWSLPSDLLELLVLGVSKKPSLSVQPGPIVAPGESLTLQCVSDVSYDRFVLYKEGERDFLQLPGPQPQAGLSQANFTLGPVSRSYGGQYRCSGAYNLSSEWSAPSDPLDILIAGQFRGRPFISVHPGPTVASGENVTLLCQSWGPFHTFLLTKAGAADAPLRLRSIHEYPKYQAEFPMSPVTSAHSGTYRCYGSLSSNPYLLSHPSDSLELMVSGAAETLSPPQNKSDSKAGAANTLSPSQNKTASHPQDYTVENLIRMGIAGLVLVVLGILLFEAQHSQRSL

[12] = molecular target: T3, Human LILRB3 on transiently transfected …; test: as above; remark: listed apart in the source
Protocol: as §1

[13] = molecular target: T4, Human LILRA4 on transiently transfected …; test: as above; remark: listed apart in the source
Protocol: as §1

[14] = molecular target: T6, Human LILRA6 on transiently transfected …; test: as above; remark: listed apart in the source
Protocol: as §1

[15] = molecular target: T7, Human LILRB5 on transiently transfected …; test: as above; remark: listed apart in the source
Protocol: as §1

[16] = molecular target: T8, Human LILRA2 on transiently transfected …; test: as above; remark: listed apart in the source
Protocol: as §1

[17] = molecular target: T9, Human LILRB4 on transiently transfected …; test: as above; remark: listed apart in the source
Protocol: as §1

[18] = molecular target: T2, Human LILRB2 on transiently transfected …; test: as above; remark: listed apart in the source
Protocol: as §1

[19] = molecular target: T10, Human LILRA5 on transiently transfected …; test: as above; remark: listed apart in the source
Protocol: as §1

[20] = molecular target: T11, Human LILRA1 on transiently transfected …; test: as above; remark: listed apart in the source
Protocol: as §1

T1 sequence (Q8N423 other isoform, or with tags, fused parts or gaps limits assumed): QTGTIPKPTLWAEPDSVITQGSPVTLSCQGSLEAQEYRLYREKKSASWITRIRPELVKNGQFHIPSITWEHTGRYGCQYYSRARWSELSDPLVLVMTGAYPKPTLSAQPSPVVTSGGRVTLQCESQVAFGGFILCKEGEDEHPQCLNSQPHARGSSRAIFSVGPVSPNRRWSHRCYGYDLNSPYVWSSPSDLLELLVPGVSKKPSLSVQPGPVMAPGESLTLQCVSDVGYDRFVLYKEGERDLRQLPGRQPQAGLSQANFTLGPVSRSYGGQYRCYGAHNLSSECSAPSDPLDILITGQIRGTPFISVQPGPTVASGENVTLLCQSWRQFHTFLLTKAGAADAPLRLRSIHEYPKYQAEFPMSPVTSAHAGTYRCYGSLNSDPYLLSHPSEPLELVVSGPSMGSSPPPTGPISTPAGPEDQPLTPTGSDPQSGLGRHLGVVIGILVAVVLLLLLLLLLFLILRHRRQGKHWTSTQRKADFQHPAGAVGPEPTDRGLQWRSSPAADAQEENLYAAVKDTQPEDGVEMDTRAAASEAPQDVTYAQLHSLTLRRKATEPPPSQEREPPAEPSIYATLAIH

| EC50 [1] [nM] | Bmax (MFI) [2] [MFI] | binding result [3] | binding result [4] | binding result [5] | binding result [6] | binding result [7] | binding result [8] | binding result [9] | binding result [10] | binding result [11] | MFI [12] [MFI] | MFI [13] [MFI] | MFI [14] [MFI] | MFI [15] [MFI] | MFI [16] [MFI] | MFI [17] [MFI] | MFI [18] [MFI] | MFI [19] [MFI] | MFI [20] [MFI] | Binder |
| --- | --- | --- | --- | --- | --- | --- | --- | --- | --- | --- | --- | --- | --- | --- | --- | --- | --- | --- | --- | --- |
| 0.21 | 11300 | no binding | no binding | no binding | no binding | no binding | no binding | no binding | no binding | no binding | 163 | 116 | 223 | 147 | 38 | 40 | 11300 | 127 | 898 | B2A-IgG1 (antibody, Rabbit variable regions on human IgG1 / kappa constant regions; AF647-conjugated in some flow assays; also called B2A-IgG1 chimera; anti-LILRB2 B2A-IgG1) heavy: not shown light: DVVMTQTPSSVSAALGGTVTIKCQASQSIGSNLAWYQLKPGQRPKLLIYAAATLASGGSSRFKGSGSGTDFTLTISDLECADAATYYCQSYVSGSSDVAFGGGTEVVVKRTVAAPSVFIFPPSDEQLKSGTASVVCLLNNFYPREAKVQWKVDNALQSGNSQESVTEQDSKDSTYSLSSTLTLSKADYEKHKVYACEVTHQGLSSPVTKSFNRGEC |
| 0.3 |  | no binding | no binding | no binding | no binding | no binding | no binding | no binding | no binding | no binding | 22 | 30 | 22 | 21 | 31 | 20 | 1160 | 21 | 73 | B2A-IgG4 (antibody, Rabbit variable regions on human IgG4 / kappa constant regions; also called B2A-IgG4 chimera; Parent B2A-IgG4) heavy: not shown light: DVVMTQTPSSVSAALGGTVTIKCQASQSIGSNLAWYQLKPGQRPKLLIYAAATLASGGSSRFKGSGSGTDFTLTISDLECADAATYYCQSYVSGSSDVAFGGGTEVVVKRTVAAPSVFIFPPSDEQLKSGTASVVCLLNNFYPREAKVQWKVDNALQSGNSQESVTEQDSKDSTYSLSSTLTLSKADYEKHKVYACEVTHQGLSSPVTKSFNRGEC |
|  | 11000 | no binding | no binding | no binding | no binding | no binding | no binding | no binding | no binding | no binding |  |  |  |  |  |  |  |  |  | B2H1-55 (antibody, V domains shown, Humanized variant, human IgG1 / kappa; also called humanized variant B2H1-55; humanized LILRB2 antibody B2H1-55) VH: EVQLLESGGGLVQPGTSLTLSCAASGFSLSTYAMSWVRQAPGKGLEWIGWIYNDGSTYYAAWAKGRFTISKDTSKTTLYLQITSLRAEDTATYFCAREGDYIGYFNIWGQGTLVTVSS VL: DVVMTQTPSSVSAALGGTVTIKCQASQSIGSNLAWYQLKPGQRPKLLIYAAATLASGGSSRFKGSGSGTDFTLTISSLEPADAATYYCQSYVSGSSDVAFGGGTEVVVK |
